Measured values: the supplement of paper PMC10126150
± gives the standard deviation of the averaged measurements.

System: ATP
Experiment: switch fluorescence ratio, 500 uM ATP over buffer (Cy3 cluster intensity, sum of 5 cycles each) (fold (ratio)); higher = stronger signal-on switching upon ATP binding; sequences stand for … in TCGTCGGCAGCGTCAGATGTGTATAAGAGACAGTTTTTTTTTTTTTTTTTTTTTTTTT…TC
Details: aptamer strand: ATP DNA aptamer (quencher-CACCTGGGGGAGTATTGCGGAGGAAGG + anchor), 100 nM annealed; ATP concentration: 500 uM
Method in brief: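 Clusters carrying Cy3-labelled switching strands on a modified Illumina MiSeq flow-cell were annealed to 100 nM quencher-labelled ATP aptamer and imaged in selection buffer. They were imaged again after 15 min with 500 uM ATP at 22 °C, over five buffer/ATP cycles with NaOH stripping and re-annealing in between. For each cluster, the fluorescence ratio is the summed Cy3 intensity of the target cycles divided by that of the buffer cycles, averaged per switch-domain sequence. Clusters outside 100-1000 RFU were left out.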
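Also: ATP exposure 15 min at 22 °C before imaging.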

| Sequence | switch fluorescence ratio |
| --- | --- |
| GTGATTTCGG | 1.022 ± 0.0095 |
| GAGGCTTAAG | 1.01 ± 0.019 |
| CATATAATTC | 0.975 ± 0.042 |
| GATTAAGGAG | 0.995 ± 0.011 |
| ACATGGGCT | 1.003 ± 0.0088 |
| GCAAGTTAGA | 1 ± 0.017 |
| GTGCTTGCGG | 1.01 ± 0.036 |
| CGCAGAGCAA | 2.538 ± 0.0049 |
| CTGTAGGGGC | 1.09 ± 0.062 |
| TCTCGTCTCT | 1.04 ± 0.028 |
| GGATCGGGCG | 0.973 ± 0.051 |
| TGATGCTAGG | 1.01 ± 0.021 |
| TTCTGCGGCT | 1.12 ± 0.039 |
| AGATGTCAGC | 0.9708 ± 0.0063 |
| GCTACGGGTA | 1.08 ± 0.031 |
| CTCGACATTT | 1.02 ± 0.027 |
| AGACTACTAC | 1.12 ± 0.025 |
| AGTGGGGGTT | 0.983 ± 0.019 |
| GAAAATGTTT | 1.0053 ± 2.1e-05 |
| CTCGTTCCTG | 1 ± 0.031 |
| ATGATTAAGA | 1.02 ± 0.019 |
| GAAGTACTAT | 1.2 ± 0.021 |
| CACCTACATG | 1.21 ± 0.031 |

| Sequence | switch fluorescence ratio |
| --- | --- |
| TCAGTCGGAT | 0.9768 ± 0.0078 |
| CAGGCGGCCC | 1.019 ± 0.01 |
| GCCACATTTT | 0.945 ± 0.01 |
| CGTGGCGGTA | 1.04 ± 0.031 |
| CCATAGTTTG | 0.993 ± 0.018 |
| TTTCAAAAGT | 1.006 ± 0.006 |
| TGGACGCGGG | 1.03 ± 0.016 |
| TTCCTCTGTT | 1.37 ± 0.26 |
| GGTGGGGTGC | 1.01 ± 0.046 |
| TGATGAATGG | 0.9899 ± 0.0092 |
| ATGAAAACGT | 1 ± 0.014 |
| TTTAATTGG | 1 ± 0.048 |
| CTTGAGTGTT | 0.996 ± 0.011 |
| GACTGGTTGG | 1.02 ± 0.029 |
| ACGCCCATTT | 1.15 ± 0.06 |
| TTTGCATATA | 1.09 ± 0.11 |
| AGTACCATTG | 0.997 ± 0.015 |
| TTAAAGCACT | 1.19 ± 0.2 |
| TGTGGGGGTT | 0.986 ± 0.048 |
| GAGGTTTGCG | 0.965 ± 0.028 |
| TTTGCGTGCA | 0.975 ± 0.011 |
| GCTGAAGGAT | 1 ± 0.0058 |
| AGCGGAAGAA | 1.02 ± 0.024 |

| Sequence | switch fluorescence ratio |
| --- | --- |
| GTATGGGACG | 1.003 ± 0.006 |
| ATACTGGACT | 1.201 ± 0.0084 |
| TTTCTGTTGG | 0.992 ± 0.035 |
| TCCTTTAGGT | 0.993 ± 0.053 |
| AGCAGGTGGC | 1.13 ± 0.045 |
| GAAAATGAAG | 1.01 ± 0.031 |
| TCTATTGGTG | 1.02 ± 0.069 |
| GTTATCTTTC | 1.07 ± 0.029 |
| AAGGAAAGAT | 0.975 ± 0.04 |
| CTAAGGGGGA | 1 ± 0.018 |
| AATGGGTGGG | 1 ± 0.062 |
| ATCGCGTTGG | 0.983 ± 0.027 |
| CAATGGGATA | 1.02 ± 0.032 |
| CTGGTGGGGG | 0.9702 ± 0.0027 |
| AGAAACGGGG | 1.08 ± 0.15 |
| TAGGCCAAGT | 0.989 ± 0.026 |
| GGGGTGCATG | 0.997 ± 0.054 |
| CGCTTATACG | 1.78 ± 0.58 |
| TGCGCATAGA | 1.02 ± 0.018 |
| TGTAGTCTTT | 1.03 ± 0.052 |
| GAGCTAGTCA | 0.975 ± 0.037 |
| TCTGGTGGTT | 0.981 ± 0.01 |
| GCTTTTATCA | 0.978 ± 0.01 |

| Sequence | switch fluorescence ratio |
| --- | --- |
| TTAAGGACTT | 1.01 ± 0.011 |
| ACTCTTATAA | 1.048 ± 0.0059 |
| CACGTTGTTT | 0.9963 ± 0.0019 |
| TAAACCGCGG | 1.01 ± 0.059 |
| AGAGGAGTGT | 0.943 ± 0.0098 |
| GGGCCGGGGC | 1.01 ± 0.024 |
| AGACATGTTT | 0.981 ± 0.014 |
| ATACTTATTG | 0.99646 ± 0.0008 |
| TTCGCTGGGT | 0.995 ± 0.017 |
| GGCCAAGGTC | 1.004 ± 0.004 |
| GGCTTCCCGG | 1.16 ± 0.002 |
| GGATTGTAAG | 0.991 ± 0.032 |
| ATCGGGGTAG | 0.9985 ± 0.0038 |
| AAGGGGGTGA | 1.01 ± 0.025 |
| GGCGTGCGTA | 1.01 ± 0.026 |
| CAGGGGTTGA | 0.987 ± 0.035 |
| GCGATTGTAA | 0.985 ± 0.024 |
| GGATGTAAGA | 1.1 ± 0.18 |
| GACATAAAAA | 0.986 ± 0.076 |
| TATGCAGGGA | 1.16 ± 0.29 |
| ATTAGGGGAT | 1.01 ± 0.018 |
| GGCTAAGAAT | 1.03 ± 0.058 |
| GTGCGTCTTT | 1.01 ± 0.041 |

| Sequence | switch fluorescence ratio |
| --- | --- |
| ATTATGGAGG | 0.968 ± 0.016 |
| ATGGGACGGT | 1.03 ± 0.036 |
| GTAGGATTTC | 1.01 ± 0.027 |
| ACGAGGCTTC | 1.294 ± 0.0082 |
| GTGGCAGGAA | 0.964 ± 0.068 |
| GTAATAGTGT | 0.981 ± 0.018 |
| CGAAATCGTG | 0.9964 ± 0.0047 |
| TTTTGATCTT | 0.991 ± 0.012 |
| CCTAAATGGG | 1.01 ± 0.077 |
| CATGATTGAT | 0.976 ± 0.029 |
| TTTCATAAGT | 0.999 ± 0.025 |
| TGGGTTATCG | 0.998 ± 0.025 |
| GGCGAGTTT | 1 ± 0.021 |
| CAGCGTATTT | 1.03 ± 0.036 |
| ATTGTGCGGC | 1.01 ± 0.027 |
| GGGCAGAGGA | 1.0929 ± 0.00017 |
| TGATTTGACC | 1.03 ± 0.051 |
| ACAGTTGTAT | 1.015 ± 0.01 |
| GACTGAGGTA | 0.99 ± 0.031 |
| GGGTAGGGTT | 0.9832 ± 0.0077 |
| GTGGTAAGTT | 0.942 ± 0.026 |
| CTCTTTGCAG | 1.086 ± 0.0044 |
| TTTGTCGCGG | 1.02 ± 0.025 |

| Sequence | switch fluorescence ratio |
| --- | --- |
| TAAATATTGT | 1.01 ± 0.016 |
| GAGAGAGGCT | 0.9988 ± 0.0071 |
| AATTTAGCCA | 1.02 ± 0.018 |
| GTCAAATTGT | 0.992 ± 0.017 |
| ATATCGCTGA | 0.987 ± 0.013 |
| TATAGCATGT | 1.038 ± 0.007 |
| TGGTGGTTGT | 1.02 ± 0.012 |
| TCAGTTTGTT | 0.997 ± 0.023 |
| TCATCAGCAG | 2.96 ± 1.7 |
| TATGTGGGGT | 0.992 ± 0.026 |
| GTTTGAATAT | 0.984 ± 0.047 |
| AAAGCTGGGA | 1.01 ± 0.019 |
| CAGTTTTGAG | 0.9917 ± 0.0014 |
| AAAAAATTTT | 1.01 ± 0.023 |
| GATTTTCAGT | 0.975 ± 0.013 |
| ATTCAGGGCT | 1.01 ± 0.013 |
| TCAAGGGGCT | 1 ± 0.013 |
| AAATTTAATG | 0.961 ± 0.016 |
| GGGGAGTTTC | 1.065 ± 0.0042 |
| TCACCTTGGA | 1.05 ± 0.096 |
| AAAGTTTGCG | 1.04 ± 0.11 |
| GGTAAAGACG | 0.992 ± 0.013 |
| GGCGCGATGG | 1.55 ± 0.13 |

| Sequence | switch fluorescence ratio |
| --- | --- |
| GTCAGAGGGT | 0.994 ± 0.013 |
| TGAGGTAAGG | 0.997 ± 0.033 |
| CTAGGTCTGT | 1 ± 0.011 |
| CACGGCAAGA | 1.89 ± 0.087 |
| ACGTCGGTAC | 3 ± 0.49 |
| ATTATGAATT | 1.01 ± 0.021 |
| AGACAGGGGT | 1.07 ± 0.098 |
| GGAAGGAGGG | 1 ± 0.033 |
| TTTTCAGGGT | 1.01 ± 0.025 |
| AAGAATTGTG | 0.992 ± 0.032 |
| TTCGTTGGGG | 1.01 ± 0.041 |
| TTTGTGGTGG | 1.01 ± 0.012 |
| GTTTTTGAAA | 0.982 ± 0.037 |
| ACGCTGTCGG | 1.006 ± 0.0068 |
| GGGTTTACTA | 0.9552 ± 0.0018 |
| TTAAAGGCTT | 0.997 ± 0.019 |
| TTTTGAGTAG | 0.987 ± 0.021 |
| AACTATTATG | 1.003 ± 0.01 |
| GGGAAAGTAT | 0.982 ± 0.032 |
